Measured values published in US20110212091A1.

Legend:
[1] = target: Recombinant human FGFR4-Fc (R&D Systems Cat # 685-FR) (human) (UniProt P22455); assay: competition ELISA: FGFR4-Fc preincubated with soluble FGF1, binding to immobilized FGF2-heparin
[2] = target: Recombinant human FGFR4-Fc (R&D Systems Cat # 685-FR) (human) (UniProt P22455); assay: competition ELISA: FGFR4-Fc preincubated with soluble FGF2, binding to immobilized FGF2-heparin

| Substance | IC50 [1] | IC50 [2] |
| --- | --- | --- |
| FGF1 (soluble) (from UniProt P05230 16-155) (ligand) | 733 pM | – |
| recombinant human FGF2 (R&D Systems, Cat# 233-FB) (from UniProt P09038 143-288) (ligand) | – | 691 pM |
